Patent US20250282866A1 (VIGIL NEUROSCIENCE, published 2025)

Experiments:
[1] = biological target: T1, human TREM2 (human, UniProt Q9NZC2 19-174, limits assumed); assay: 1st screen (110 nM or 10 nM)
T1 construct: also called triggering receptor expressed on myeloid cells 2
T1 sequence: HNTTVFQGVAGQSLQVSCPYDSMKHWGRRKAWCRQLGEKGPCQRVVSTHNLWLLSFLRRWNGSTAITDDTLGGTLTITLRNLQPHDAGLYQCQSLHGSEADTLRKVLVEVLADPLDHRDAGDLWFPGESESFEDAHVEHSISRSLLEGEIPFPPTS

[2] = biological target: T1, human TREM2; assay: 2nd screen, printed under 10 nM

Binding Signal (fold over 6E7 Parental antibody) [1]: 0.61 fold | Binding Signal (fold over 6E7 Parental antibody) [2]: 0.73 fold
B1: V31 (antibody, V domains shown)
VH: EVQLVQSGAEVKKPGESLKISCKGSGYSFTSYWIAWVRQMPGKGLEWMGIIYPGDSETRYSPSFQGQVTISADKSISTAYLQWSSLKASDTAMYFCARQRTFYYDSSDYFDYWGQGTLVTVSS
VL: DIQMTQSPSSVSASVGDRVTITCRASQGISSWLAWYQQKPGKAPKLLIYAASSLQNGVPSRFSGSGSGTDFTLTISSLQPEDFATYFCQQADSFPRTFGQGTKLEIK
